Measurements taken from the DeepSol protein solubility set.

assay: soluble on expression in E. coli; label from the status in PepcDB or PDB records

Row | Sequence | soluble on expression in E. coli
1 | MRHPLISLLLLIAFYSTSSEAFVPKCNSFYVRWPRVRLNFKAVAEARLSLKGCQSACSLGEDPVSPGKQLECAAVNHQASPDGFSHLCAVFQPHQLQNVDGYVEADDRFTFYWKYCLPSTRKCSGEYAFTYLSDRYMDQKSVIKWTTKANLEECLSDCLDEKSFECRSISFNRTDGGCHMSKDSQISRPEAIRLNNNPNYRIDYYENNCYNLSESFTFKHECRDNGISVSVKSRLPYTGAIYGLYDFFTCRTEPKEATEFDHFFPYQTVSKNCSDSIKYKGNEMVLEVVLSTDGIEPLYFITPEDLTYQAKCPISGVKAKDPANTKSSAHLDNRNKAMEASAHALFELLSKTGDDEALQNTFPLPLTTTTEVISDVPTTTVQTSTTVPTTPSKTTATTTTTPKPTTTETATTSSSTTTVTTQKPTTVTSTTTLPSTTASTTTKTTTSTPTSPQTTTTHVGAPASSVASVAHDGSTLAGKPKVPVIFDIFHNGQPVEAVVVGTKISLSFRPHYPIPPEYVDVRGCQVEPIDPKYEWEHEPLFIIRDGCPADGVGLVCPPTHSEFGAKVSVEAFRYQTTGQVQYSCLVRICPFAPCPKNTCDDVEGCDSSYMHRYRRELSLEDIKKALEANPELASQFGISPSAFARNPSKSKNFTSVVEEQQRIALGGDYLVRRRLIVVNSEDQLRYYVRTGNI | not soluble
2 | MSLTTRIGFLLFPGFPMACLTSIIEPLRAANEISMSDSFAWRLVSELPRKVVSSAGITFEPDASLETVSALDYLVLLSAPVARFENPRTASLLRRIERHGTVLGAISGGVFPLVRSGVVRDERLSVHWCYEAAFAAEFPEIQRSNEVIEISPRLLTASGAAAAFDLALSLIEAALGANVANEVACWFQHPIMRKAGVKQALPIHQAADAEGEMSPLVARAIEIFAENLTTPASIAAIAERLHITPRHLERCFKQATGQNPTGYFRHLRMQAARQIVMYTNDSIAEVATAVGYANAKPLVRHYRDTFGLTPQQDRKRINLYRVEGNEGHHHHHH | not soluble
3 | MGSDKIHHHHHHMSKLVTIYGGSGFVGRYIARRMAKEGWRVRVAVRRPNEAMHVKPYGAVGQVEPVLCNLRDDNSVAQTMRGADAVVNCVGVLNELGRNSFDAVQAEGAERIARIAAEQGVARMVHVSAIGADGDSDSAYSRSKALGEAGVLRHMPDAMILRPSVIFGTEDQFFNRFAGMTRFGPFLPVVGAETRFQPVYVDDVARAAVKGVLGQAPGGVYELGGPDVETFRALMQRMLGVIHRKRIIIALPFFAARIMAGMLDVAKFVSFQLFPNNILTRDQLKNLRRDNVVSEGAKGFADLGIAPEPMDTVLPAYLWKFRPNGQYDEIQASAKNLRA | not soluble
4 | DVTGLATGFRDLDKITTGLHPDQLIILAARPAVGKTAFVLNIAQNVGTKMNRPVAIFSLEMGAESLVDRMLASEGMVDAHNLRTGQLTEQDWQNITLAQGTLADAPIYIDDTPGIKVTEIRARARKLDQELEKGLGLIVIDYLQLITGTRPENRQQEVSDISRQLKILAKELGVPVIALSQLSRGVEQRQDKRPVLSDI | not soluble
5 | SRWQRDLTDSTVLRNMGVALGHTLLAYDSCLKGLGKLQADPARLSEDLQNAWEVLAEPIQTVMRRYGVANPYEQLKALTRGKTGIDRTTLQQFIEQLDIPAAERDRLLQLTPWGYI | not soluble
6 | MNLVTDQDLLDVVNFFNRPLHALIAEVSKTTSDLELVRSTTQGIENICLLLDLVGTECIKDASAAKTSVLEHHHHHH | not soluble
7 | MGSDKIHHHHHHMAGATLLTSSCNDWLDVLPKNEQVSPEYWKTKEQVEEVLAQGYQNMRLTVPTLIYWGELRGASIYAYSGKSKQELQNFQLNSSSGECKWGGFYSILNVANSIIKYAPEVKRQDETYHEAVMNSNMAEAYFMRAWTYFTLVRNFKEVPLILEPYMTDEYAVDIPKSSEETIIAQIKLDIENALSTGAAKEMYDDEDWTGMSKGRVTVWALYALMADVCLWSEDYDGCVRYADMLINSTSAFRPAFVEDPEQWYNIFFPGNSNGSIFELNFDQSRNQSPDDDATASTYPSPSNVYPWTQSTVASLQFSNAMCKRLFDEQTDQWVTSNTVRGYGNTFVLSSGTVIGNSNTEGYLPFKFRIGGKDGLSTTRSYKDANWILYRMADVLLMKAEALIWKGGEANFAQALELINKIRTRANVTTLSVQTNAVSQENMLGYLLQERDLEFAAEGKRWYDLLRFGRSQNFKYKDQFINMIIENNSTVSASWIRSVLKNTDAWYLPISQGEIDSNPNLIQNPYYDVTAN | not soluble
8 | MVSKIRTFGWVQNPGKFENLKRVVQVFDRNSKVHNEVKNIKIPTLVKESKIQKELVAIMNQHDLIYTYKELVGTGTSIRSEAPCDAIIQATIADQGNKKGYIDNWSSDGFLRWAHALGFIEYINKSDSFVITDVGLAYSKSADGSAIEKEILIEAISSYPPAIRILTLLEDGQHLTKFDLGKNLGFSGESGFTSLPEGILLDTLANAMPKDKGEIRNNWEGSSDKYARMIGGWLDKLGLVKQGKKEFIIPTLGKPDNKEFISHAFKITGEGLKVLRRAKGSTKFTRVPKRVYWEMLATNLTDKEYVRTRRALILEILIKAGSLKIEQIQDNLKKLGFDEVIETIENDIKGLINTGIFIEIKGRFYQLKDHILQFVIPNRLGKPDLVKSELEEKKSELRHKLKYVPHEYIELIEIARNSTQDRILEMKVMEFFMKVYGYRGKHLGGSRKPDGAIYTVGSPIDYGVIVDTKAYSGGYNLPIGQADEMQRYVEENQTRNKHINPNEWWKVYPSSVTEFKFLFVSGHFKGNYKAQLTRLNHITNCNGAVLSVEELLIGGEMIKAGTLTLEEVRRKFNNGEINF | soluble
9 | MGSDKIHHHHHHMTQVDILILSNGPGEVTTWVRPVVRALRQQFGDDRNQVRISVVLSPCSNASGKEAAIALSYPEVDRVQAAEHFWQFLLWGKTIDNWDWRSRGVVVFLGGDQIFPVVIGKKLGYRTVVYAEWEARWHNWIDRFGVMKPEVAARAPHKYAHKFTVVGDLMVEANSHSSLVIGDLSNDKELMTNDIDASTTSHSVGQKTELIGLLPGSKAAKLAQGVPLCLSIAEYVHAKRPQTKFVIPVAPTLDLQTLASFADPQRNSIAEIFGFGGAALIVPEDDRDKALLKTAKGVTVELWQENPAYHLLSQCCICLTTVGANTAELGALGVPMIVLLPTQQLDAMRAWDGLPGLLANLPGVGTPFANTINWLFLRFVRRKGLLAWPNIWAQEEIVPELMGKLQPPEIGEMVVELLAHPEKLADIRAKLRNIRGESGAALKIAQIVCEEMGK | not soluble
10 | MTHDNKLQVEAIKRGTVIDAIPAQIGFKLLSLFKLTETDQRITIGLNLPSGEMGRKDLIKIENTFLSEDQVDQLALYAPQATVNRIDNYEVVGKSRPSLPERIDNVLVCPNSNCISHAEPVSSSFAVRKRANDIALKCKYCEKEFSHNVVLAN | soluble
11 | MNKIIKYIGASAVVCMMAGCTTNFEDFNTNPYQPSKVPASNLLSTMFNVYACPQQNACQEINCMWASFSGQVTATANWSFGKNIFAYYNASEGHNDSSWGRLYGYIYPSFFLVENSTEKKGVIYAMAQLTRVYGMQLLASLQGPIPYTQMKAGETEAPYDNEQTVWHAMFDDLDNAITILKSAATFGVNQDLAVVDQFYKGDCSKWLKFANTLKLRMAIRISGVEPEYAQTKAQEAVLGGVMESVGDSSYDTTNGGINENGYAIVSGWPEVRANACLVSYMNGYNDPRRPAYFTPQTQTAAGGYVGVRSGSAEIPEPTVYANYSKLFIATDKTLPQPVMYAAEAAFLRAEGALKGWNMGGDAKTFYEKGVRLSFEEFGVSGADDYLADATSIPGNYVDNLIAGHTGNNYTNQSSITIKWEDGADDAKKLERVLTQKWIACYPDPMNGWADFRRTGYPRIFPATESMNADCNTGRGQRRLRFTRSEYNNNKANVEAAVSMLSNGKDSNGTDLWWAMKENGTY | not soluble
12 | RNRQQRPGTIKHGSALDVLLSMGFPRARAQKALASTGGRSVQTACDWLFSH | soluble
13 | QSTVKIILEEDTETLDEVVVVGYGVQKKSDVTGAMARVTSKVIEDRPVQNALQAMQGRVTGVDITSNNRPGELGDIRIRGNRSLTADNNPLYVIDGIPMSAGSIADVNPSDIESMEILKDASATAIYGSRGANGVILVTTKKGKTGR | not soluble
14 | MSLANLYLMRSRSDELNTIISTNLLKNYSKIYKNIAIYCPVIYIHRVPVLQGWLEEFNINQTVKSAYGFTFREAMEEFSKDPHNFFNVILEEYEELKRKYDFVLVNSFCEFGILDGFDLSIKLAKNLNTPIAAIINDEDKLIAQKYFDHALDGRNYVLINENFNFEEVQKLKEYDFITPHRFKYELIKQSIKNKKTVVLPESNDERILKAAEILLKSKVVDLILLGDEEKIKQDATRLSLDLSAMQIMNPLNSEYNQKFTSILYEARKSKGMSLEEAKMLVQDKTYFGTLLIHTGKADAMVSGASTTTAETIRPALQLIKTKEGISSVSGIFFMGLEDQVLAFADCAVNPSPTAEQLATSAYVSAMTAKSFGLEPRIALLSYSSGDSGKGESVDLVKEALKIAKEKYPELNIDGPMQFDCAYDPKTAAKKMPNSKIAGHANVYIFPDLNAANICYKAVQRTANALAIGPILQGLKKPVNDLSRGCLVDDIVDTVILSAIQAQEGHHHHHH | soluble
15 | MGSDKIHHHHHHMYDAVIIGGGPGGYVCAIKLAQLGKKVALVEKDALGGTCTNRGCIPTKAMLTVSHLMDEMKEKASKYGLKVSGVEYDVAAIMKHVQKSVMMSRKGIEYLLKKNGVEVFKGTAVVENKNTVVVQETGEKLEAKNLVLAHGSVPSVFSPFDIDGVWTSDDVFNLKEFPKSLVIVGGGVIGVEFATFFGSFGVDVTIVEIAEHILPYEDSDVAEEVKKALKRKGVKILEKTKISSLSKVDDGFEVALENGETLKAEKVLLAAGRKPNIPEDVKALGVKIEKGVVTDSRMRTNVENVYAIGDIRSGIMLAHVAMYEGIVAAKNIAGEEEEMDYSAVPSIIFSSPEVASVGVREKDVNPEEVVISKFPVSANGRARTMLENIGFAKVIADKKDGTVLGMSIVSPSATDMIMEGVIAVKFRMKAEDLEKAIHPHPTLTETILGALEGVSGKPIHL | not soluble
16 | MSSRIEQIIEEIEEYIDKDCKFQPLSSTKIIVNKEHLDELLRELRMKTPDEIKRYQKIISNRDAILADAKAKADAMIEEAQVQTTELVSEHEIMQQAYAQANEIVTQATAQAQEIIDNATMDANEIRMGAIQYTDDLLANAESIIGHTLDSYTTKYDGLINSLQECYDVVRTNRAELESPTPEEGQEFSGEA | not soluble
17 | MLLAGLTSCQQKGYTITGTVDSTLNLDGNMVYIQLSQGNNLDSTTIRNGAFTFTGEHIDTAKLAYIVTASPEHNVVPIIFILEDGKISAKIGEYAAKGTPLNEENFKYSAKINELENSFKLKMEEIQADTARAAEETQAMLEKEYTAMLGEKSKITTELYQSHTNDALGARLLQNILYGEGSDSDVIAEARKKAGPIVLAHPNIVHLLAMIDNLADTQPGKMAKNFAGTDAEGNEVELFKYVGQGNYAVVDFWASWCGPCRREIPYIAEANAKFAEKGLQVVGIVVWDKMEDHLKAKEALNVVWPQIFDAKNVATDMYGIQGIPQVILFGPDGTIIERDLRGEKLIEKLSEIYNSNKK | not soluble
18 | MGSDKIHHHHHHMNILDGIKSLALKLGSKQDQTYYARGLSLTDDLMQIEALWRDNWIANKVCIKRSEDMVRNWRDIFSNDLKSEQLDEFTKLERRLKLRETLTKALQWSSLYGAVGLLVVTDTINITSPLQPTERLKRLIILPKWKISPTGQRDDDVFSPNFGRYSEYTITGGTQSVSVHHSRLLIINANDAPLSDNDIWGVSDLEKIIDVLKRFDSASANVGDLIFESKIDIFKIAGLSDKISAGLENDVAHVISAVQSIKSATNSLLLDAENEYDRKELSFGGLKDLLTEFRNAVAGAADMPVTILFGQSVSGLASGDEDIQNYHESIHRLQETRLRPVLEVLDTLLCNELFGGQPDDWWFEFLPLTVVKQEQQVNMLNTFATAANTLIQNGVVNEYQVANELRESGLFANISADDIEEMKNANELARNFEEPEGESTQVQASEDE | not soluble
